Data published in patent publication US20240352445A1 (published 2024).
Read-outs that look alike come from different tables or passages of the source.

Tests used:
[1] = target: T1, SARS-CoV-2 spike protein trimer, Omicron (B.1.1.529) variant (SARS-CoV-2, UniProt P0DTC2 16-1213); assay: BLI
[2] = target: T2, SARS-CoV-2 spike protein trimer, Beta (B.1.351) variant (SARS-CoV-2, UniProt P0DTC2 16-1213)
[3] = target: SARS-CoV-2 spike protein trimer, Alpha (B.1.1.7) variant (SARS-CoV-2, UniProt P0DTC2 16-1213)
[4] = target: SARS-CoV-2 spike protein trimer, Gamma (P.1) variant (SARS-CoV-2, UniProt P0DTC2 16-1213)
[5] = target: SARS-CoV-2 spike protein trimer, Epsilon (B.1.429) variant (SARS-CoV-2, UniProt P0DTC2 16-1213)
[6] = target: SARS-CoV-2 spike protein trimer, Kappa (B.1.617.1) variant (SARS-CoV-2, UniProt P0DTC2 16-1213)
[7] = target: T1, SARS-CoV-2 spike protein trimer, …; assay: flow
[8] = target: T1, SARS-CoV-2 spike protein trimer, …; assay: BLI; remark: listed apart in the source
[9] = target: T2, SARS-CoV-2 spike protein trimer, Beta …; assay: BLI
[10] = target: T1, SARS-CoV-2 spike protein trimer, …; assay: ELISA
[11] = target: SARS-CoV-2 spike protein trimer, Omicron (BA.2) variant (SARS-CoV-2, UniProt P0DTC2 16-1213); assay: ELISA
[12] = target: SARS-CoV-2 spike protein trimer, Delta (B.1.617.2) variant (SARS-CoV-2, UniProt P0DTC2 16-1213); assay: ELISA
[13] = target: T1, SARS-CoV-2 spike protein trimer, …; assay: BLI; remark: listed apart in the source
[14] = target: T2, SARS-CoV-2 spike protein trimer, Beta …; assay: BLI; remark: listed apart in the source

| Binder | Kd [1] [nM] | IC50 [2] [µg/mL] | IC50 [3] [µg/mL] | IC50 [4] [µg/mL] | IC50 [5] [µg/mL] | IC50 [6] [µg/mL] | IC50 [7] [µg/mL] | Kd [8] [nM] | Kd [9] [nM] | IC50 [10] [µg/mL] | IC50 [11] [µg/mL] | IC50 [12] [µg/mL] | Kd [13] [nM] | Kd [14] [nM] |
| --- | --- | --- | --- | --- | --- | --- | --- | --- | --- | --- | --- | --- | --- | --- |
| LxA3-E4 (antibody, V domains shown) VH: EVQLVESGGGLVQPGGSLRLSCEASGFTFPNQAMTWVRQAPGKGLEWIGVIASNADTYYASWAKGRFTISRDNSKNTLYLQMNSLRAEDTAVYYCARHPGSAGYGYGHYYAMDPWGQGTLVTVSS VL: DIQMTQSPSSLSASVGDRVTITCQASENIRYAINWYQQKPGKAPKLLIYGATYRDEGVPSRFSGSGSGTDYTLTISSLQPEDFATYYCQQGYVVPNSFGGGTKVEIK | < 0.001 |  |  |  |  |  |  |  |  |  |  |  |  |  |
| humanized antibody hN2F (antibody, V domains shown) VH: EVQLVESGGGLVQPGGSLRLSCTVSGFSLSTYAMSWVRQAPGKGLEWIGVIASNADTYYASWAKGRFTISRDNSKNTLYLQMNSLRAEDTAVYYCARHPGSAGYGYAVYYAMDPWGQGTLVTVSS VL: DIQMTQSPSSLSASVGDRVTITCKASEDIRYGLNWYQQKPGKAPKLLIYGANTLEAGVPSRFSGSGSGTDFTLTISSLQPEDFATYYCQQGYSTPLTFGGGTKVEIK |  | 1.29 | 0.0561 | 2.18 | 0.0101 | 0.0589 | > 0.5 |  |  |  |  |  |  |  |
| humanized antibody hN2Y (antibody, V domains shown) VH: EVQLVESGGGLVQPGGSLRLSCTVSGFSLSTYAMSWVRQAPGKGLEWIGVIASNADTYYASWAKGRFTISRDNSKNTLYLQMNSLRAEDTAVYYCARHPGSAGYGYAVYYAMDPWGQGTLVTVSS VL: DIQMTQSPSSLSASVGDRVTITCKASEDIRYGLNWYQQKPGKAPKLLIYGANTLEAGVPSRFSGSGSGTDYTLTISSLQPEDFATYYCQQGYSTPLTFGGGTKVEIK |  | 0.0347 | 0.0704 | 0.0588 | 0.0184 | 0.0117 |  | 0.123 | 0.193 | 0.44 | 0.159 | 0.00419 | 0.123 | 0.193 |
| LxA3-B11 (antibody, V domains shown) VH: EVQLVESGGGLVQPGGSLRLSCEASGFTFPNQAMTWVRQAPGKGLEWIGVIASNADTYYASWAKGRFTISRDNSKNTLYLQMNSLRAEDTAVYYCARHPGSAGYGYGHYYAMDPWGQGTLVTVSS VL: DIQMTQSPSSLSASVGDRVTITCLASEQAHYAINWYQQKPGKAPKLLIYGTSLLAEGVPSRFSGSGSGTDFTLTISSLQPEDFATYYCQQGYIVPISFGGGTKVEIK | 0.0449 |  |  |  |  |  |  |  |  |  |  |  |  |  |
| rabbit monoclonal antibody C-A11 (antibody, V domains shown) VH: QSLEESGGRLVTPGTPLTLTCTVSGFSLSTYAMSWVRQAPGKGLEWIGVIASNADTYYASWAKGRITISKTSTTVDLKITSPTTEDTATYFCARHPGSAGYGYAVYYAMDPWGPGTLVTVSS VL: AIEMTQSPSSLAASVGDTVTITCKASEDIRYGLNWYQQKLGIAPKLLIYGANTLEAGVPSRFSGSGSETDYTLTISSVQAEDAGIYYCQQGYSTPLTFGAGTKVEIK |  | 0.0218 | 0.0495 | 0.0548 | 0.00314 | 0.0141 | > 0.5 |  | 0.0404 |  |  |  |  | 0.0404 |
